Experimental data from the DeepSol protein solubility set.

Assay: soluble on expression in E. coli; label from the status in PepcDB or PDB records

Soluble on expression in E. coli, not soluble:
MKKLFGVGPDLLGDGKVLFEWSPKGNFLAAAGSKRKVNIFDRNGRLYDEVHFPPAEYPNPDGRACAAAQMQWDPAGEQLAILPAGNTHVFIWLAGNKEVQKIESEFKTQEFSCMAWSRNGMYLGVATVKGNVMMYNARERKKTPLVGKHTKKIVAAAWNKDNIMALAGQDKTVTLTDGVTGDTIKTFHLKDVPMDLCVSDKKEDGYSRREENTYSLNINRKTLYIMQCTAEGDRPLELAFLDTYGPIMKHSWFGDGYILLGYKNGYVAVVSSHSREISEEVHSGKYLDTLTDVTYCASLGRVAMAGANCVRVLDANADYNEIKGDAVDLDANQAIEKVGWTKDGQVLTVGTHNGYMHSFLASLPMVYDFHGTRVLYLTSLLEMTLLDVSRRQTVARIELENEPAFCGLGPSHAAVGMNNQAAFYSLGEKVGKVVQRREYLGTITAIKLNETQAAVLTGGHVVVHPISVEAGHAPDELDVVIPGPGQPANITCVALTPTFVITGSRTGTLSYYLSPDVTPVNEFRHDDGGIVRLFPQATGARLVFEDDKGALHLFNPVNDHVVAVPYTGRAETVMWDTSDTNVMVIGDGTALHSFLYVPVSLTGPQVQDLGKQAVPATHTPLTVCNGVVGCRLKSGAMDNVTLESHKMLQPGDAVARAAPAKRFAAALKLYKLRDAVECAKQLRQVESWRTLALAALDVLDIDTAINAYREIGDASMVLSLERVRQHEDRNLLSAHIMVLLEKDYGQAQELFLRSSVPRAALEMRMDLKHWTDALKLAEQLDPDAIATICKEHGAMLEMTGEYSNAKSHYQQALDALAVSVGPAQPDLEAACKAGIARTTLQLGDLRQGRQLAMQLNSQTLFKECALILEGLQQLTEAAEMYERAGQFERAASIYIQTKNFAAAAPLMARISSSKLQLQFAKAKEAEGRWQEAAAAYEAAGDMDAVVRLCLERLSQPQRAYAIVRKTQSVEAANQLSRFCLQSQDFGGAVEFLLMAGQMDQAFDIAMGHNEMDTFARIVAASAKPVDYQRIAQYYESRGEYDKAADMWSKCDQAPRAVQLYLKVGTNPALEKAVQVVEQTRSHQLGVLVLDYVNEEKDGTTRDEFRFKLNIAMGQFAEAARDALEMARFEQEEGNYRVAHDKLFGTVKQLEALNTKPPGELLRALMLLHSYTLVKSLIAINDHTTAARMLVRVARNISKFPKHIVPILTSTVIECHRANLKKTAFEYASMLMRPEYRDQVAVKYKKKIELMVRKPEKDPEELEEPLADCPFCNMPGPETELQCISCQNILPFDLATGKRMVLSDWAECPGCKFPASASQFIRIISAEGRCPM, MFAVRTKFVTKTEVVLRTVYTALEKGLAVIGPTQVAEELGVSKSTAQKMLNELSKAGYGVYVPKKGLVLNERGKMEARAAVRMHRLIECLLADLGVEDFCKEAEKIGMVAGSSLVDALEARYGDREFCPCGKRIPEVKK, KNVWIFAEQREGKIAPVVIELLGEGRKLAKEVDAELCAILLGKDVDGLAKELITFGADKVYVADDALLEKYTTDAYTKVIKDAIDEIKPEIMLFGATHIGRDLAPRIASRVGTGLTADCTKLEIDPEDKKIKQTRPAFGGNIMATIICPNHRPQMSTVRPGVMDKAEKDETRTGEVIALDYKITQDDIRTTVLETV, RTMGFYVAKGNPKNITGWEDFRRDDLTMVNRERGCGTRILLDEHLRLLNIDGNKINGYSRESLSHLAIASIISRNGADIGIGNEKTGLQVANIDFIPIQRERYDLVIRKDDIEKPPFKAIIDILQSETFKSELMGIGGYDLTQTG, MRNKDLEPHSFELWLNAAKTNLDKYEMALIITATLGLRRGEVMGLRNESIKISHDQINDADVAQISIDMQRNTNELNGGPLKTKSSYRTIWAFGKTVDHLKYAMITADNLRQRNNIQAEKHWLWLNNDGNPLHPTHLNRLMRRVSNRSGVEVYPHLLRHYFATQAIAANKPQIDVMHYLGHKNLQMTADYTRSTKAASLNVFNSIDKFLLEHHHHHH, MGSDKIHHHHHHMKKAIVLCAGKGTRLRPLTFTTAKHLIPIANKPILFYSLENIARAGIEEVGIVVSPHNAEEFKSIVGTGENFGLRISYIIQEEPKGLAHAVWVSREFLGDEDFMMYLGDNLILEDLGKFVKDFENSDYAASILLSPVKDPTRFGVAVMEGDRVIKVVEKPKTPPSNLAIVGLYLFRNKIFEGIKNIKPSWRGELEITDAIEYLIEKGEKVRGYIVYGWWKDTGKPEDLLEANRKILMETTEELLGEMDDKSSIQGPVRIGKASKIVNSVIRGPAVIGENCFIKNSYVGPYSSIGNRVILEDCEVENSIVMDECSITGVEKRIDSSILGKGVSVKGSQKRPASLNLILGNMSRVEL, MQEAVNSALPGDVIIVKPGSYYDHVTVTTNNLVIRSESGNPEDTVIEGYNPTADVFTIEADNITLEGFTIMGAGANCSGLCLHGCTNCLIDSNTFFNDFRGIYLKSSLNNDILNNIVIKGGRGISIEESNHNSVSKNKVSECGYGINLLNSKDNRISKNTVAGNKDYGILVQSSDSNTFSRNNASENGRGIHIGNSDGNTLSNNKISLNEVHGLFVCPKSDKNLVYNNYFSNTLNVEANNGTSNVYHKSRTKGENIVGGPYIGGNYWATPEGSGFSETAADNNGDGIADEKYLFETSDYFDPLPLIAYKPPEPVLPTANLSINTPEDYAPLSVQFTDLSENATSRTWDFENDGVIDSPDETPVYTYPSPGTYTVNLTAACENGTDTKLITINVGENNVAEIQPESAPGEESMSTTGSQAEQNSEQEGISSIPGFEMLYGIFCLLAIFLYKESTKLEHHHHHH, MGSDKIHHHHHHSDDREMDDGRWKASALRVPLQVSSAVIKQEVVTRLAPDPVPLTEGAIGIFLSGTEPESGQEDSGYKVIDNRKYVYSEGHWGPPTANDTIYLVGNDADVCAYYPYKDSYTDKTVIPLQSQDYVETEDIYYALNTMINGFTPAITFDMVHAYSLVELKISRENYFMPCEISKITLKNSNLIKKGTINIAVDGSIHSSETGNYDLTTVTDASPHTLSVGESYVCRVLMIPVPLKIERTDAEGGEFGLSVSLVIDGQQMLVEIPYSELGEFRQGEKYVIGLKIKGTEIVPTVKALEWEDEEVNGGNKYPVE, GQLNVEHRQFLSQGLQGQSKGQSSVVVQPELYWDFQSGESSFTFTPFFRVDSLDDERTHCDIREALFLTYWDDYELRVGISKVFWGVTESAHLVDVVNQTDAVEAVDGEDKLGQPMVHFTAIKDWGAFHAMVLPYFRERTFAGQDGRLRTEPVISDNAIYESSREEKHIDVAFRYSKMLGDWDIGLSYLYGTNRDPYFRFEQGELKPYYALMSHFGIDVQGIVGDWLWKLESVYRDSYDHHVGVVTGFE, SLLLRLCRWLRLLGYPTVAAHEVVDPTKVEDEDEVLVEFCREHDALLITRDRQLARRARAVLITADSVPEQIAEVLEFLGDEAFLDPDESRCPECNARVRRVTAENPGPFEVTWECPECRRKYWVGGHWRDMEETIDRVKKALRRVQRGHLRG, MIDMTSKKRAVAPRDLYRRWPWANTAGMEPDMVRLQIFVQNLERAVIGDGRMRPVTSPSEFCDNIGISHATLGRILRGEVIPRFDTIDKLERGVGRALFPPFEDVRVRGNKG

Soluble on expression in E. coli, soluble:
MSLCDQKNDTLQGKQNNMTAFIKKIAASKESEETQRYVGNLNGIEIKLTYYYKGDIVLRQISEHKLLYKTLKANNKEEAQKMLSQVGEAYQGMPGLTERIDYYDSYATEYVDINFTQAKISDLCKLPGSSIDNCSAYYLSMIRSQKLLEESGYHRINEGHHHHHH, IDKKLTTLADLFRPPIDLMHKGSFETAKECGQMQNKWLMINIQNVQDFACQCLNRDVWSNEAVKNIIREHFIFWQVYHDSEEGQRYIQFYKLGDFPYVSILDPRTGQKLVEWHQLDVSSFLDQVTGFLGEHGQLDGLSSS, MASSSSTLPLHMYIRPLIIEDLKQILNLESQGFPPNERASEEIISFRLINCPELCSGLFIREIEGKEVKKETLIGHIMGTKIPHEYITIESMGKLQVESSNHIGIHSVVIKPEYQKKNLATLLLTDYIQKLSNQEIGNKIVLIAHEPLIPFYERVGFKIIAENTNVAKDKNFAEQKWIDMERELIKEEYDN, MGHHHHHHSHMGIKYHEESIHAAYVHVIENSRHYIYIENQFFISCADDKVVFNKIGDAIAQRILKAHRENQKYRVYVVIPLLPGFEGDISTGGGNALQAIMHFNYRTMCRGENSILGQLKAELGNQWINYISFCGLRTHAE, VCEKGFEAGDNKLGGALNAKHVEKYGDNFKNGMHKPEFHEDGLHKPMEVGGKKFESGFHYLLECHELGGKNASGGYGGPLCEDPYGSEVQAMTEKLLKEADSDRTLCFNNFQDPCPQLTKEQVAMCKGFDYGDKTLKLPCGPLPWPAGLPEPGYVPKTNPLHGRWITVSGGQAAFIKEAIKSGMLGAAEANKIVADTDHHQTGGMYLRINQFGDVCTVDASVAKFARAKRTWKSGHYFYEPLVSGGNLLGVWVLPEEYRKIGFFWEMESGRCFRIERRAFPVGPYTFMRQATEVGGKISFVFYVKVSNDPESDPIPLQSRDYTALAGRDNAPTNLGKPYPTLAKDLDYPKKRDGWLEKNEKEMLRQRNIVSSTF, MRKQKNRQRNRGRSQEIALFLDPLATSLKWLQAGRQITTEAFHNPEAGENQYRLISSGFRLSIFGRGAVRQGMNKERFTILLGGDVAVSDRLKRAVVNSRVIAADGGMRHATPLGLTPELWVGDFDSANQELLDAWPDVTRQPYPAAKAVTDGEIAVSEALLRGAHSLLLVGALGGARSDHALQHLLYAVALAERGFEVTLTSGEEEARPLLAGSLAIDLPAGSLFSVAGFTALEGLDIGNVRYPLNDFALAFGSSRTISNVANGGPVHFSLKSGKAIVLARPYDLTGALEHHHHHH, EVQLQQSGPELKKPGETVKISCKATNYAFTDYSMHWVKQAPGGDLKYVGWINTETDEPTFADDFKGRFAFSLDTSTSTAFLQINNLKNEDTATYFCVRDRHDYGEIFTYWGQGTTVTVSA, SNATAYIIVGLTPKDAEKLQQYGARVASTLAKYSGEVLVKGSVEQLHGKFEHKAQVILEFPSREDAYNWYHSEEYQALISTRDLGMDSQFQLIG, MNEDAWNKETYSAWVKRFGTPDTAAKKISKDPSKILSVLHEKLGDVKGKKIMNIMGSNGSKAVALALLGADVTVVDFSKGNMDYALDLAKEADVKIDYILSDILKLPEDKLTADYDIVFAEMGIIHYFIDLKPFIKTINRLLKEGGLFVLRDFHPVSTKLITSRGSTAKVRKHKVTGDYFDTSLEEKDAAFSKYLIDNKEPEKVLLRKWTLGEIVTSVAEGGFKIKKLDEEPNLSCDNFDKGIPKSFTLTSEKLSLEHHHHHH, MKWNLDPSHTSIDFKVRHMGIASVRGSLKVLSGSVETDEAGRPIQVEAVIDAASIATGEPQRDGHLRSADFLHAEQYPEIRFVSTQIEPLGGNRYRIQGNLTIRDITKPVTLEAEVSAPIKDPWGMQRVAASASGQINRKDWNLTWNQVLELGALLVGEEVKFNLEVEAVAPAPVAAQ, MSLKKTQQKEIENVTNITGVRQIELWRRDDLQHPRLDEVAEEVPVALVYNGISHVVMMASPKDLEYFALGFSLSEGIIESPRDIFGMDVVPSCNGLEVQIELSSRRFMGLKERRRALAGRTGCGVCGVEQLNDIGKPVQPLPFTQTFDLNKLDDALRHLNDFQPVGQLTGCTHAAAWMLPSGELVGGHEDVGRHVALDKLLGRRSQEGESWQQGAVLVSSRASYEMVQKSAMCGVEILFAVSAATTLAVEVAERCNLTLVGFCKPGRATVYTHPQRLSNEGHHHHHH
